Assays:
[1] = biological target: T1, PureCol native bovine dermal collagen type I (bovine, UniProt P02453 162-1217; P02465 80-1117); assay: ELISA; solid-phase assay: plates coated with 10 μg/ml native or denatured Col I, blocked with 2% BSA; biotinylated fibrinogen in 0.5% BSA in Ca2+- and Mg2+-free PBS pH 7.4, 2 h at 37°C; avidin-alkaline phosphatase; conditions: both partners purified
T1 construct: collagen α1(I) chain, bovine (Bos taurus), from dermis; collagen α2(I) chain, bovine; Native triple helix; Prolines are in part hydroxylated in the tissue protein; also called Col I; native Col I; source: bought: Advanced Biomatrix (PureCol, 3 mg/ml)
T1 sequence (P02453 162-1217, chain 1 of 2): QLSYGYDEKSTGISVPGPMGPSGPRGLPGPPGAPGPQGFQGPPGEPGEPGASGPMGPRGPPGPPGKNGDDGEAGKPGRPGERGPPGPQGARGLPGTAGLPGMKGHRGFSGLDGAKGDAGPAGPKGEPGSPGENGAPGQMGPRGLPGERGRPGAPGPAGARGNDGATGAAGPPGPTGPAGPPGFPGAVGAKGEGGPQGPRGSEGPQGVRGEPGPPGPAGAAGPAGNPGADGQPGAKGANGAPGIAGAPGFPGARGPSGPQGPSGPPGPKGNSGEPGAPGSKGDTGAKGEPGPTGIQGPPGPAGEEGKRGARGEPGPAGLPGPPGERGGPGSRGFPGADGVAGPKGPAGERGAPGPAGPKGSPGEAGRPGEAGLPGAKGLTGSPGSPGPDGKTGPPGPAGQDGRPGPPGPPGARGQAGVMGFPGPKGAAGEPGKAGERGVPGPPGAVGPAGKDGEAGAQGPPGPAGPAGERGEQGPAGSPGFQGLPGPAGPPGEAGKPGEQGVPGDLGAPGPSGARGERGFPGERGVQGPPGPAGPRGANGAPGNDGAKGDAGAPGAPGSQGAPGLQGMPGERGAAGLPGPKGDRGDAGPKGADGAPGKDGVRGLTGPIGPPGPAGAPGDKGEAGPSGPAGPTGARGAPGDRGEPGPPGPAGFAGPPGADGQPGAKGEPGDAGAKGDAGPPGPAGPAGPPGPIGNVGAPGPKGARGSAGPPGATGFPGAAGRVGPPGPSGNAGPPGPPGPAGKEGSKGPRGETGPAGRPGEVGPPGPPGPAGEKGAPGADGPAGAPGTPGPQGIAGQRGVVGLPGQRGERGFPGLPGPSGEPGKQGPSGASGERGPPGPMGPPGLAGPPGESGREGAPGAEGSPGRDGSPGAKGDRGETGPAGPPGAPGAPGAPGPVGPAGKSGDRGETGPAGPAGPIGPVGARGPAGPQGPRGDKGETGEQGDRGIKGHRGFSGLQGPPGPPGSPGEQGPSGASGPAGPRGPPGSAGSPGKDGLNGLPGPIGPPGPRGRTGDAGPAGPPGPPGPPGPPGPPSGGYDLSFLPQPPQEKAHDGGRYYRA
T1 sequence (P02465 80-1117, chain 2 of 2): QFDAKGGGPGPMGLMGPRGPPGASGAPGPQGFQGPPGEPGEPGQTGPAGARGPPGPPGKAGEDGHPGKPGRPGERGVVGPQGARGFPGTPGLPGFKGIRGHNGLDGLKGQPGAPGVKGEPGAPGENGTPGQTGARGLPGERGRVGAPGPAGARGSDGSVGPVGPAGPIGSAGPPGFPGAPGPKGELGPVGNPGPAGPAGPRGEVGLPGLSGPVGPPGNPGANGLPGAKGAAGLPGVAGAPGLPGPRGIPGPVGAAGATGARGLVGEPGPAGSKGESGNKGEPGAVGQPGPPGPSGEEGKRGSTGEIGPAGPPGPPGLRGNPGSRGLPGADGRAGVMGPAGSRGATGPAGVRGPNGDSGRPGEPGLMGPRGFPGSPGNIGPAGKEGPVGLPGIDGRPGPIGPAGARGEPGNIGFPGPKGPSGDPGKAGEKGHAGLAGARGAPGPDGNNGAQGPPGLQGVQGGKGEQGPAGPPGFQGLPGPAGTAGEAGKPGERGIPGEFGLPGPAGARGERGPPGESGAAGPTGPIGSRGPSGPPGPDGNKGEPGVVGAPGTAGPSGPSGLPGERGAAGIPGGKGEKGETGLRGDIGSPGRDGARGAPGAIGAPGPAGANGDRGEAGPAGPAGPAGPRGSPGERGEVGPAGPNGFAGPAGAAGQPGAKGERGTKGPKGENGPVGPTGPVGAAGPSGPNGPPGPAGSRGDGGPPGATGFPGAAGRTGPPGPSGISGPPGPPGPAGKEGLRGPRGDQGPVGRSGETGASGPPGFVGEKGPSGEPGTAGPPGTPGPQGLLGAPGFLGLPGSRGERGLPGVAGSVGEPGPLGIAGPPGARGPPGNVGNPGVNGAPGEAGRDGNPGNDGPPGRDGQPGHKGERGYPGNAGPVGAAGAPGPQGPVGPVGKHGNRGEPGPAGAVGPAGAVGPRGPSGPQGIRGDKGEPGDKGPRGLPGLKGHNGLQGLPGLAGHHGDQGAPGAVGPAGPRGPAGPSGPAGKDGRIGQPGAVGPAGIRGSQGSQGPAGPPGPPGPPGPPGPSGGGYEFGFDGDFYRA

[2] = biological target: T1, PureCol native bovine dermal collagen …; assay: SPR; Col I (PureCol bovine dermal and mouse-tail tendon) coupled to a BiaCore C1 chip; freshly dissolved, filtered fibrinogen in PBS passed over the chip, then wash-out; conditions: both partners purified

EC50 [1]	EC50 [2]	Binder
~70 nM		biotinylated human plasma fibrinogen (natural protein, biotin (biotin N-hydroxysuccinimide ester; which chains and residues not stated) | biotin (biotin N-hydroxysuccinimide ester; which chains and residues not stated) | biotin (biotin N-hydroxysuccinimide ester; which chains and residues not stated)) chain 1: ADSGEGDFLAEGGGVRGPRVVERHQSACKDSDWPFCSDEDWNYKCPSGCRMKGLIDEVNQDFTNRINKLKNSLFEYQKNNKDSHSLTTNIMEILRGDFSSANNRDNTYNRVSEDLRSRIEVLKRKVIEKVQHIQLLQKNVRAQLVDMKRLEVDIDIKIRSCRGSCSRALAREVDLKDYEDQQKQLEQVIAKDLLPSRDRQHLPLIKMKPVPDLVPGNFKSQLQKVPPEWKALTDMPQMRMELERPGGNEITRGGSTSYGTGSETESPRNPSSAGSWNSGSSGPGSTGNRNPGSSGTGGTATWKPGSSGPGSTGSWNSGSSGTGSTGNQNPGSPRPGSTGTWNPGSSERGSAGHWTSESSVSGSTGQWHSESGSFRPDSPGSGNARPNNPDWGTFEEVSGNVSPGTRREYHTEKLVTSKGDKELRTGKEKVTSGSTTTTRRSCSKTVTKTVIGPDGHKEVTKEVVTSEDGSDCPEAMDLGTLSGIGTLDGFRHRHPDEAAFFDTASTGKTFPGFFSPMLGEFVSETESRGSESGIFTNTKESSSHHPGIAEFPSRGKSSSYSKQFTSSTSYNRGDSTFESKSYKMADEAGSEADHEGTHSTKRGHAKSRPV chain 2: QGVNDNEEGFFSARGHRPLDKKREEAPSLRPAPPPISGGGYRARPAKAAATQKKVERKAPDAGGCLHADPDLGVLCPTGCQLQEALLQQERPIRNSVDELNNNVEAVSQTSSSSFQYMYLLKDLWQKRQKQVKDNENVVNEYSSELEKHQLYIDETVNSNIPTNLRVLRSILENLRSKIQKLESDVSAQMEYCRTPCTVSCNIPVVSGKECEEIIRKGGETSEMYLIQPDSSVKPYRVYCDMNTENGGWTVIQNRQDGSVDFGRKWDPYKQGFGNVATNTDGKNYCGLPGEYWLGNDKISQLTRMGPTELLIEMEDWKGDKVKAHYGGFTVQNEANKYQISVNKYRGTAGNALMDGASQLMGENRTMTIHNGMFFSTYDRDNDGWLTSDPRKQCSKEDGGGWWYNRCHAANPNGRYYWGGQYTWDMAKHGTDDGVVWMNWKGSWYSMRKMSMKIRPFFPQQ chain 3: YVATRDNCCILDERFGSYCPTTCGIADFLSTYQTKVDKDLQSLEDILHQVENKTSEVKQLIKAIQLTYNPDESSKPNMIDAATLKSRKMLEEIMKYEASILTHDSSIRYLQEIYNSNNQKIVNLKEKVAQLEAQCQEPCKDTVQIHDITGKDCQDIANKGAKQSGLYFIKPLKANQQFLVYCEIDGSGNGWTVFQKRLDGSVDFKKNWIQYKEGFGHLSPTGTTEFWLGNEKIHLISTQSAIPYALRVELEDWNGRTSTADYAMFKVGPEADKYRLTYAYFAGGDAGDAFDGFDFGDDPSDKFFTSHNGMQFSTWDNDNDKFEGNCAEQDGSGWWMNKCHAGHLNGVYYQGGTYSKASTPNGYDNGIIWATWKTRWYSMKKTTMKIIPFNRLTIGEGQQHHLGGAKQAGDV
	~10 nM	human plasma fibrinogen (natural protein, fibrinogen Aα-chain, human, from plasma; fibrinogen Bβ-chain, human, from plasma; fibrinogen γ-chain, human, from plasma; In the gel contraction assays it was converted into fibrin by thrombin; also called unlabelled fibrinogen; non-biotinylated fibrinogen; source: bought: Sigma-Aldrich; copies: 2 + 2 + 2) chain 1: ADSGEGDFLAEGGGVRGPRVVERHQSACKDSDWPFCSDEDWNYKCPSGCRMKGLIDEVNQDFTNRINKLKNSLFEYQKNNKDSHSLTTNIMEILRGDFSSANNRDNTYNRVSEDLRSRIEVLKRKVIEKVQHIQLLQKNVRAQLVDMKRLEVDIDIKIRSCRGSCSRALAREVDLKDYEDQQKQLEQVIAKDLLPSRDRQHLPLIKMKPVPDLVPGNFKSQLQKVPPEWKALTDMPQMRMELERPGGNEITRGGSTSYGTGSETESPRNPSSAGSWNSGSSGPGSTGNRNPGSSGTGGTATWKPGSSGPGSTGSWNSGSSGTGSTGNQNPGSPRPGSTGTWNPGSSERGSAGHWTSESSVSGSTGQWHSESGSFRPDSPGSGNARPNNPDWGTFEEVSGNVSPGTRREYHTEKLVTSKGDKELRTGKEKVTSGSTTTTRRSCSKTVTKTVIGPDGHKEVTKEVVTSEDGSDCPEAMDLGTLSGIGTLDGFRHRHPDEAAFFDTASTGKTFPGFFSPMLGEFVSETESRGSESGIFTNTKESSSHHPGIAEFPSRGKSSSYSKQFTSSTSYNRGDSTFESKSYKMADEAGSEADHEGTHSTKRGHAKSRPVRGIHTSPLGKPSLSP chain 2: QGVNDNEEGFFSARGHRPLDKKREEAPSLRPAPPPISGGGYRARPAKAAATQKKVERKAPDAGGCLHADPDLGVLCPTGCQLQEALLQQERPIRNSVDELNNNVEAVSQTSSSSFQYMYLLKDLWQKRQKQVKDNENVVNEYSSELEKHQLYIDETVNSNIPTNLRVLRSILENLRSKIQKLESDVSAQMEYCRTPCTVSCNIPVVSGKECEEIIRKGGETSEMYLIQPDSSVKPYRVYCDMNTENGGWTVIQNRQDGSVDFGRKWDPYKQGFGNVATNTDGKNYCGLPGEYWLGNDKISQLTRMGPTELLIEMEDWKGDKVKAHYGGFTVQNEANKYQISVNKYRGTAGNALMDGASQLMGENRTMTIHNGMFFSTYDRDNDGWLTSDPRKQCSKEDGGGWWYNRCHAANPNGRYYWGGQYTWDMAKHGTDDGVVWMNWKGSWYSMRKMSMKIRPFFPQQ chain 3: YVATRDNCCILDERFGSYCPTTCGIADFLSTYQTKVDKDLQSLEDILHQVENKTSEVKQLIKAIQLTYNPDESSKPNMIDAATLKSRKMLEEIMKYEASILTHDSSIRYLQEIYNSNNQKIVNLKEKVAQLEAQCQEPCKDTVQIHDITGKDCQDIANKGAKQSGLYFIKPLKANQQFLVYCEIDGSGNGWTVFQKRLDGSVDFKKNWIQYKEGFGHLSPTGTTEFWLGNEKIHLISTQSAIPYALRVELEDWNGRTSTADYAMFKVGPEADKYRLTYAYFAGGDAGDAFDGFDFGDDPSDKFFTSHNGMQFSTWDNDNDKFEGNCAEQDGSGWWMNKCHAGHLNGVYYQGGTYSKASTPNGYDNGIIWATWKTRWYSMKKTTMKIIPFNRLTIGEGQQHHLGGAKQAGDV
